In patent EP1908827A2:

Columns and labels:
[1] = target: PP1c (type-1 protein phosphatase catalytic subunit, PP1c alpha); test: PP1c pull-down from extracts of cardiomyocytes co-infected with Ad-I-1 and AdPKCα wt, I-1 western blot quantified
[2] = target: PP1c (type-1 protein phosphatase catalytic subunit, PP1c alpha); test: PP1c pull-down from extracts of cardiomyocytes co-infected with Ad-I-1 and AdPKCα dn, I-1 western blot quantified

## Inhibitor-1 (I-1), expressed from adenovirus in neonatal rat cardiomyocyte cultures
[1]
  change in I-1 co-precipitated with PP1c (wildtype PKCα co-expressed, against I-1 + β-gal): 50 % reduction
[2]
  change in I-1 co-precipitated with PP1c (dominant negative PKCα co-expressed, against I-1 + β-gal): > 70 % increase
